The values below come from paper PMC3153955.

This data set concerns C[C@@H]1O[C@@H]1P(=O)(O)O. Nature of the data set: pyruvate kinase-lactate dehydrogenase coupled assay. In kind it is biochemical, Streptomyces wedmorensis. The following applies: 1 mM ATP, 10 mM MgCl2, 100 mM KCl, pH 7.2, 25 °C.

As for “FomA (fosfomycin resistance kinase FomA) (Streptomyces wedmorensis)”, the Km (commonly the concentration of substrate that gives half-maximal velocity) was 9.9 ± 0.7 µM; the kcat – broadly, the number of substrate molecules converted per active site and unit of time at saturation – was found to be 155.9 ± 1.5 s⁻¹.
